Assay results taken from patent US20130189278A1 (Merck Sharp & Dohme, published 2013).

Target: recombinant human PCSK9, V5-, His-tagged (human, UniProt Q8NBP7 31-692)
Assay: cell-based or functional assay

Sequence of recombinant human PCSK9, V5-, His-tagged (Q8NBP7 31-692 limits assumed): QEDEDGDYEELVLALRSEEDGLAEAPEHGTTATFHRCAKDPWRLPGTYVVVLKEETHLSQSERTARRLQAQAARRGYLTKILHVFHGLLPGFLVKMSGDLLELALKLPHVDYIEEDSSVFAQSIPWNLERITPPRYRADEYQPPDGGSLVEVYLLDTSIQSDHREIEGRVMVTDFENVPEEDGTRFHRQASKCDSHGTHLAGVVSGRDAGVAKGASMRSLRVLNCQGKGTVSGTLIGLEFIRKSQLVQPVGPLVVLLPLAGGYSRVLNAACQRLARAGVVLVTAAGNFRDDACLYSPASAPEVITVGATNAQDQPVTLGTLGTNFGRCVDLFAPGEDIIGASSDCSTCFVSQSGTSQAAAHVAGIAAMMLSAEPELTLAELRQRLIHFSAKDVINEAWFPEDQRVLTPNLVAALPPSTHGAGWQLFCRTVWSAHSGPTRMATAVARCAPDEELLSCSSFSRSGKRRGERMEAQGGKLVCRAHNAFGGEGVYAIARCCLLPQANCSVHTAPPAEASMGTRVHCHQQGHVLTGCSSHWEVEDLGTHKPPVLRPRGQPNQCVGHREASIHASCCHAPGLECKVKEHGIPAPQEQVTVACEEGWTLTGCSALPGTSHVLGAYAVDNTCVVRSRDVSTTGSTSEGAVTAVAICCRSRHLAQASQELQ

IC50, Exopolar assay: reversal of PCSK9-dependent loss of cellular diI-LDL uptake, Fab titrated against fixed PCSK9 (25 µg/ml): 269 nM
B1: 3CX3D02 (Fab, V domains shown)
VH: QVQLVQSGAEVKKPGESLKISCKGSGYSFTNSWIGWVRQMPGKGLEWMGIIYPSDSYTIYSPSFQGQVTISADKSISTAYLQWSSLKASDTAMYYCARGGGYYYALMDVWAQGTLVTVSS
VL: DIQMTQSPSSLSASVGDRVTITCRASQTISTWLNWYQQKPGKAPKLLIYAASSLQSGVPSRFSGSGSGTDFTLTISSLQPEDFATYYCLQDSSLPLTFGQGTKVEIKR
